Experiment in all cases: purified protein
Common to all, as to details: 20 mM Tris-HCl, pH 7.5, 22 °C, 0.025-0.2 mM ac4C

Substrate in data set [1]: CC(=O)Nc1ccn([C@@H]2O[C@H](CO)[C@@H](O)[C@H]2O)c(=O)n1
Substrate in data set [2]: CC(=O)Nc1ccn([C@@H]2O[C@H](CO)[C@@H](O)[C@H]2O)c(=O)n1
In kind it is biochemical, Buttiauxella agrestis.

Substrate in data set [3]: CC(=O)Nc1ccn([C@@H]2O[C@H](CO)[C@@H](O)[C@H]2O)c(=O)n1
It counts as biochemical, Shewanella loihica.

B1: KpnYqfB (Klebsiella pneumoniae subsp. pneumoniae MGH 78578) (protein)
chain: MQANDITFFQRFQDDILAGRKTITIRDAAESHFKPGDVLRVGRYEDDGYFCTIAVTATSTVTLDTLTEQHAQQENMTLGQLRQVISDIYPGESQFYVIEFKTL
By kcat is commonly meant the maximal rate divided by the concentration of active sites. The term kcat/Km denotes the turnover number divided by the Michaelis constant. In the case of B1, in “purified protein [1]”, the Km entry is “(4.6 ± 0.8) × 10^-5 M”, the kcat came out at 216 ± 2 s⁻¹ and the kcat/Km is 4.8e+06 ± 800000 M⁻¹ s⁻¹.

B2: BagYqfB (Buttiauxella agrestis ATCC 33320) (protein)
chain: MNDITFFQRFESDIVAGRKTITLRDVSESHFIPGQQLRVGRYEDDVYFCTIEVVSVTPVALEKLTDEHARQENMTLPELKEVIGEIYPGLTELYAIVFRLLTKSDKRVL
notes: 109 a.a; pLATE31 expression vector, E. coli HMS174 ΔpyrF ΔyqfB host
In the case of B2, in “purified protein [2]”, the Km entry was “(3.6 ± 0.8) × 10^-5 M”, the kcat was 154 ± 11 s⁻¹ and the kcat/Km was determined as 4.3e+06 ± 700000 M⁻¹ s⁻¹.

B3: SloYqfB (Shewanella loihica PV-4) (protein)
chain: MTPLTYDGKITFFERFEADILSGAKTITLRDESESHFRVGDRLSVSTFETGRHFCDIQVVRVEELAFEALNSRHAVQENMTLEQLKAVITEIYGEIDTLYLIEYRLL
notes: pLATE31 expression vector, E. coli HMS174 ΔpyrF ΔyqfB host
B3: in the data set “purified protein [3]”, the Km entry was “(1 ± 0.2) × 10^-4 M”, the kcat is 441 ± 37 s⁻¹ and the kcat/Km came out at 4.3e+06 ± 500000 M⁻¹ s⁻¹.

Source of the values: paper PMC9599836, “Comparative Analysis of Mesophilic YqfB-Type Amidohydrolases” (Biomolecules, 2022).
